This is an account of results in a protein production outcome set (Wang et al. 2014).

A short description of the data set: label from the status in PepcDB records.
With “MPTPRPEPAAPPGNNQAGPPAGGPIISPTDLIAIQPPRAVAGDFVPDEVLVTVDGDAGAVQQIAASFGLEVRSQRQSRLLGTTLVRFGIPDGRPVGVVLAQLAADGRTQRREPNHIYSLQQAAGIVNYAFDRIALDAKQASGENIRVAVIDTGIDDTNPALAGVIAAQFDAMPGVPVEKRDHGTSIDGLIAGVGALEGMAPGARIYHARAFEGGKSTMDVILSALDWAAEQNVSIINMSFVGPKNDLLGAACRNARALGMVLVAAAGNNGPKAPYGYPAAFDGVIAVTATDAKDALMPQANRGAYVFISAPGVEMVAPSGAGSDVVTGTSFAAAIVSGAIANLLHASPGRTADDIEKALAATAKDLGPKGRDNDFGYGLLDIKAAEAAKE”, the protein production result is “failed”.

As for “MMRQPRARTMTMRDDIRDLPANDDRMTRFLGGSPMAVAFRLILMSILVGVVLAAIGLDPWNIITSIRLLFERIWDLGFDAINGLWRYFLLGAVIVIPIWLLTRLASTPRGR”, the protein production result is “failed”.

On to “MGDRVNLEGIVIDIEQTNDQLSFNVTDENESVPVVYDGPMPETMSVGRTVVAKGYYNGSVVEAESLSIRAHEGLEHHHHHH”, for which the protein production entry is recorded as “not failed”.

Regarding “MELGFPLLWLSLVLPVLASLTIVALPPRTAYWLVAITLAIPGIVSSYYAFQGVLSEGIIDPVSLNLSNIGIGVVALAVDGFSYPFVLGVSVVTALVAVYGYKYMEVRLREMEGEGERAPGHAAYLILYSIFSSTMLGIAYSLNFLLFIIFLELSLLSSFLLIAFYGYGDRRRIALLYFVWTHIAGALALLGGLYYVIKTGTFDVATVEGGRIVYFSSPADRSVYAAIAGVSLLLGMLVKMAVFGVHMWLPYAHAEAPTPISALLSPNLIGLGGYGIARFAAAFYPWLLEDLKPLLVGLAFVTIVYGGLVALSQLDFKRLLAYSSISQMGYMLLALSTLHPLGFAAASLIFLGHAVGKAVLFMTAGVFITEAHGLRNIARMGGLARLYPLTAAAALIGFLHLAGIPPAFGFWGELYLTLSVLNYPGYSDAVSLGLLAIILIVAFTVTAAYSFITMRRIFFGRPRADMDAREEVDGFKSTVVLLAVLGVALFLLAGPMVTDLAASSLAMVEAFLS”, the protein production result was “failed”.

On to “MLLYVLIISNDKKLIEEARKMAEKANLELRTVKTEDELKKYLEEFRKESQNIKVLILVSNDEELDKAKELAQKMEIDVRTRKVTSPDEAKRWIKEFSEEGGSLEHHHHHH”, for which the protein production result was “not failed”.

Turning to “MVITGKFAMYVTAFVVTVSLIEAFVLWRKRRDGVKPFSWNEVWLSLADLAGRKLSVLLPLSLAAPVFSFAWDHRLFTITLNSALAVFLLFVGQEFCYYWYHRAAHRIRFFWATHAVHHSPNQLTLTSAYRLGWTGKLTGSAVFFAPLVLLGVRPEVVLATLSLNLLYQFWLHNDWMPKLGWFEYVFNTPSAHRVHHASNIDYLDANYGGVLIIFDRLFGTYVEERADEPCRYGLVHPTTTQNPIVNQFEHWVSLGRDMASASKLWHAAAYLIMPPGWAPNGKGTTTEILRRQQEELRQAGWQRPGVV”, the protein production result is “failed”.

“MCIGFCIDRLDKGFLYTCHSTICRLVAQNMKKSLIHIGDGLGLSLLIEPTGSKSWRFRYRFGGKPKMISFGAYPLVSLAEARKKRDEARKQVLDGINPSEHRKAQKLNLMSESENTFETIAREWHTMKSVCWSVGYASDIMEAFRNDIFPYVGKRSIAEVKPLELLNVMRKMEKRGALEKMKKVRQRCSEVFRYAIATGRAEYNPAADLSSALEVHQSHHFPFLKADEIPDFLRALEGYTGSKLVRIATKLLLITGVRTIELRAALWSEFDLGNAIWEIPEERMKKRRAHLVPLSTQALDLLNELKIMTGNYRYVFPGRNNPNKPMSEASINQVIKRIGFGGEVTGHGFRHMLSTILHEEGFDSSFIEIQLAHVDRNSIRGTYNHAQYLEKRRHMMQYYSDYVIGKDF”: the protein production entry was “failed”.

As for “MASTAVSELVFFIVTLLITASAVAVLSDQTIHIVYGMQSSSQRTTDMIQENFAIINNPDQIPYDNGYVFYIKNTGSVGFAFDNTSISVLVDGSAVTGKYVKFISLENSSILVPGQVGEIVVNETLSGYNSITISLGTGVSHTFNFEV”, the protein production entry is reported as “failed”.

For the sequence “MTDTTQRIFLSYAGPDQAWAEWVGWQLQQAGHQVELDRWHWRTGDDFVQKMNLALGKADAVVALFSRHYFEPKRWTREEWSAAVALRGRLVPVAIELLNDDDIPALLAGTLRTDVHGLDEAAATSALLEAVHGPVPPTGPVDFPGAASADAPTAPDAQRPRLPSSVGLPEVWNVRRRNPDFSGRETVMGQLRTGLLSGRQAVVQALHGMGGIGKTQIALEYAHRFASQYDLVWWVDAEQADQLPVRYTELADRLGVAKSDAGSEPNARALLQHLRTRHRWLLVLDNAEHPDQIEPWLPEGPGHVLITSRNPDWHGIAHQSDLDVFTRTDSLAYLKGRISGMTTEHADLLAQDLGDLPLALAQASGVLRSGMTLDRYRRLLTTDTARLLQESDVRDHPAPLAATVGIAVTRLADDGHADAVALLRLGAFLGPEPIPTAWLETARPRLATIPGDPDDPMWLRNALQPLGRFGLARTDYDAFQIHRLTQAILRTQTGPDPVVAIRDDVTAVLAAVDPGDPRSPADWPAWASLTAHLTAPHVTTALAHQAALRATFSKAAHFLICSGLPRAAHDLSAALHQAWSTDLGPDHPDTLTCAQFLGHATVDLGDYAKGRLIIEDTLVRRRRVLGEDHPDTLRSANDTSTNLSLLGERVEARRMHEDVLARRRRVLGEDHPDTLTSAGNLATILNKSGEYVEARRMQEDVLARRRRVLGEDHPDTLTSAHNLAGLLNSLGEHAESRRMQEDVLARRGLVLGEDHPDTLSSASNLATSLNSLGEHAESRRMHEDVLARRGLVLGQDHPDTLSSANKLATSLNGLGEHAEARRMHEDVLARRGVVLGQDHPSTLASAGNLATTLNSLGEHVEAHRMQEDVLARCRRVLGQDHPDTLTSASNLARTLHTLRQYSEAAELLKEVRASYVRHFGAKHPKTELATRNLATVLIAMGKTHEAQQLTGRKSDKGKRRFGRKRR”, the protein production entry is on record as “failed”.

As to “AGKPDWDWQPAPKNEALIAAVSAAAQEGLNAAYQIREKQARTTKLREVYAAVQAAMAEQAAQAGQPAPDSVGVDNILFDLEARIVRSQILNGEPRIDGRDTRTVRP”, the protein production entry is listed as “not failed”.

For “MSLMDYFAIHVVPKLYRGKGAFHPAETGKLTETVSCVREYDVNIFFIRKGNTLIAIDSGYKNHHALLPGCKKIEIDPKAVQALFLTHADPDHAGGLDIRCENCFINAEIYLGEIEENYLTNTIYRKKIGPFGLKNSVKIKDNYHLLKDGQSVSVGDLTIQPFLVPGHTLGHLMYLIDNELLFTGDSIALNQEGGWCFFDLFNYNSEMNIKSLKTLKEKLDLNRIKYVFTSHNGFTDKAKEAFAHVDVIPKWNEKGFIFDKTAPYDCFAD”, the protein production entry is listed as “failed”.

Turning to “SPFDTGPELESQIRNQYGVDVHVVPVLDTLNEAETLDRVAMQAARTIGPLVDSNAIIGVAWGATLSAVSRHLTRKMTHDSIVVQLNGAGNMQTTGITYASDIMRRFGSAYGARVEQFPVPAFFDHASTKTAMWNERSVQRILDLQARMSIAIFGVGSVDSDYPSHVYAGGYLDEHDLTMLAADDVVGDVATVFFRSDGSSDGITLNERSTGPSHEQLRQVRRRICVVSGASKINGLQGALAAGLATDLILDEASARRLVSFNGH”, the protein production entry is given as “not failed”.

Regarding “MFADRLFNAMERNEPAPGMVLVAAPSMESEDFARSVILIIEHSEYATFGVNLASRSDVAVFNVIPEWVPCVTKPQALYIGGPLNQQSVVGVGVTAQGVDAARVDNLTRLANRLVMVNLGADPEEIKPLVSGMRLFAGHAEWAPGQLAQEIENGDWFVAPALPSDVTAPGSVDVWGDVMRRQPMPLPLYSTFPVNVGEN”, the protein production result is “not failed”.

Consider “MEYSSIANGLFLISDINSDAAATISNVFDHTSMNTADLENMPTEKPVEYTKSPGHYYIVLPGQPNKYTAKIIINQLNASGETSDIATTTATSAYTTGLFTISAKYLVDDAFVINAGTGQEMTLTRIMDMDGSDYETFPVDVNQGPQTFTIVPQDQLLHATVNYKFADGTEAAPSAKLSGYAGLTTVSAKSPTISGYTPDQKEVAVAFAPTEKTYTVTYKANPTTPTATESSASSSTADEATTFTPFKIYGKRALYTYKNATFKKNQRVSHYAQKSKAYAPIFEVVGTAKSTSGHLRYKLADGTYVTANADYVGALYWQGMYQKLYVTNPKGTNAYDGTRFAQATKQKHYRQGTALTVVKQTQVGQTTRYELTNGTYVTGNKQWVSPTKPRLVKQVKVKRTIRLYRDVNGSTFIKRIKPGKTLTVTGWDYSHGRNPRLSGTLRYRVAGGYITANRQFVVAN”, for which the protein production entry is given as “failed”.
